From patent US9719067B2, “Generation of anterior foregut endoderm from pluripotent cells” (Mount Sinai School of Medicine, priority 2010, dated 2017)

Assays:
Type in all cases: cell-based, human
[1] = test system: ventralized AFE; experiment: Induction of lung and parathyroid markers from ventralized AFE
Description: (§1) Mouse embryonic fibroblasts were depleted by a 24 h passage on Ma gel (Gibco) with Y-27632 (10 μM), and embryoid bodies were formed on low-adherence dishes (Costar). During embryoid body formation and differentiation, HES2 cells were reseeded at the same concentration (1:1 dilution), whereas HDF2 and HDF9 required a higher seeding (2:1-4:1 concentration) for efficient endoderm generation. Differentiations were performed in a medium of DMEM/F12 (Invitrogen) supplemented with N2 (Gibco), B27 (Gibco), ascorbic acid (50 μg/ml, Sigma). Glutamax (2 mM, Invitrogen), monothioglycerol ([…], Sigma). The following concentrations of factors were used for primitive streak formation, endoderm induction, anterior/pharyngeal endoderm induction, and subsequent anterior posterior and dorsoventral patterning: human BMP-4, 1 ng/ml and 10 ng/ml; human bFGF, 2.5 ng/ml; human activin A, 100 ng/ml; human Noggin, 200 ng/ml; Y-27632, 1 μM; SB-431542, 10 μM; human FGF10, 10 ng/ml; human FGF7, 10 ng/ml; murine EGF 20 ng/ml; and human WNT3a, 100 ng/ml. Hepatic conditions were as previously described 2 and contain BMP-4, 50 ng/ml; bFGF, 10 ng/ml; VEGF, 10 ng/ml; HGF, 10 ng/ml; TGFα, 20 ng/ml; dexamethasone, 40 ng/ml. All factors were purchased from R&D systems, except SB-431542 and Y-27632, which are from Tocris, and dexamethasone (Sigma). […]
(§2) Total RNA was extracted using Trizol (Invitrogen), phase lock tubes (5′ Prime) and the RNeasy kit (Qiagen). […] Amplified material was detected using SybrGreen (Invitrogen). Real-time quantitative PCR was performed on ABI 7900HT thermocycler (Applied Biosystems), with a 10-min step at 95° C. followed by 40 cycles of 95° C. for 15 s and 60° C. for 1 min. All experiments were done in triplicate with SYBR GreenER quantitative PCR SuperMix (Invitrogen). […] Absolute quantification was obtained in relation to a standard curve of genomic DNA dilution series. Quantified values for the gene of interest were normalized against input determined by the housekeeping genes GAPDH and β-ACTIN, qPCR for each culture well was performed in triplicate.

[2] = test system: activin A-induced definitive endoderm (HES2); experiment: Anteriorization of activin A-induced definitive endoderm, factors added at day 5, marker mRNA by quantitative PCR at day 9
Description: as §1
as §2, with “triplicate. […]” for “triplicate.”

[3] = test system: hES cell line HES2; experiment: Activin A induction of definitive endoderm from hES cells (flow cytometry, cell number); conditions: after 4 d of exposure to activin A
Description: hESC (HES2, National Institutes of Health code ES02 from ES Cell International; passages 25-33) were cultured on mouse embryonic fibroblasts plated at 8,000-12,000 cells/cm^2, A medium of DMEM/F12, 20% knockout serum replacement (Gibco), 0.1 mM β-mercaptoethanol (Sigma-Aldrich), and 20 ng/ml FGF-2 (R&D) was changed daily. Cells were passaged with trypsin, washed and replated at a dilution of 1:5 to 1:10. HDF2 and HDF9, hiPS cell lines, were cultured as hES2. hES and hiPS cultures were maintained in a 5% CO2/air environment, and hES differentiations were maintained in a 5% CO2/5% O2/90% N2 environment.
Mouse embryonic fibroblasts were depleted by a 24 h passage on Ma gel (Gibco) with Y-27632 (10 μM), and embryoid bodies were formed on low-adherence dishes (Costar). During embryoid body formation and differentiation, HES2 cells were reseeded at the same concentration (1:1 dilution), whereas HDF2 and HDF9 required a higher seeding (2:1-4:1 concentration) for efficient endoderm generation. Differentiations were performed in a medium of DMEM/F12 (Invitrogen) supplemented with N2 (Gibco), B27 (Gibco), ascorbic acid (50 μg/ml, Sigma). Glutamax (2 mM, Invitrogen), monothioglycerol (0.4 μM, Sigma). […]
Day 5 embryoid bodies or day 13 monolayer cultures were dissociated with trypsin/EDTA (2 min). […] Cells were analyzed on a LSRII. […]

[4] = retinoic acid added to the WKFBE cocktail
[5] = mRNA at day 9, factors added at day 5

With CC1=C(/C=C/C(C)=C/C=C/C(C)=C/C(=O)O)C(C)(C)CCC1 [retinoic acid, all-trans retinoic acid] as the molecule, how does the “expression of FOXP2, NKX2.1, GATA6 and FOXJ1” value [1, 4] read?
The value was “increased”.

What about the “expression of the pharyngeal pouch marker PAX1” value [1, 4] of the same molecule?
The value was “decreased”.

B1: WNT3a: human WNT3a, agonist of canonical Wnt signaling; 100 ng/ml (protein, UniProt P56704 19-352, looked up)
Protein Wnt-3a: SYPIWWSLAVGPQYSSLGSQPILCASIPGLVPKQLRFCRNYVEIMPSVAEGIKIGIQECQHQFRGRRWNCTTVHDSLAIFGPVLDKATRESAFVHAIASAGVAFAVTRSCAEGTAAICGCSSRHQGSPGKGWKWGGCSEDIEFGGMVSREFADARENRPDARSAMNRHNNEAGRQAIASHMHLKCKCHGLSGSCEVKTCWWSQPDFRAIGDFLKDKYDSASEMVVEKHRESRGWVETLRPRYTYFKVPTERDLVYYEASPNFCEPNPETGSFGTRDRTCNVSSHGIDGCDLLCCGRGHNARAERRREKCRCVFHWCCYVSCQECTRVYDVHTCK
With B1 as the molecule, how does the CDX2 expression [2, 5] read?
The CDX2 expression was “increased”.

B2: FGF8: fibroblast growth factor 8, agonist of FGF signaling (protein, UniProt P55075 23-233, looked up)
Fibroblast growth factor 8: QEGPGRGPALGRELASLFRAGREPQGVSQQHVREQSLVTDQLSRRLIRTYQLYSRTSGKHVQVLANKRINAMAEDGDPFAKLIVETDTFGSRVRVRGAETGLYICMNKKGKLIAKSNGKGKDCVFTEIVLENNYTALQNAKYEGWYMAFTRKGRPRKGSKTRQHQREVHFMKRLPRGHHTTEQSLRFEFLNYPPFTRSLRGSQRTWAPEPR
Which “parathyroid-specific marker GCM2” value ([1]; AFE ventralized with WKFBE in the absence of retinoic acid) does the source give for B2 here?
Its value is “induced”.

B3: activin A: human activin A, soluble cytokine activating the same receptor as nodal; 100 ng/ml (protein, UniProt P08476 311-426, looked up)
Inhibin beta A chain: GLECDGKVNICCKKQFFVSFKDIGWNDWIIAPSGYHANYCEGECPSHIAGTSGSSLSFHSTVINHYRMRGHSPFANLKSCCVPTKLRPMSMLYYDDGQNIIKKDIQNMIVEECGCS
modifications: Inhibin beta A chain
notes: 100 ng/ml
How did the “cells expressing the definitive endoderm markers CXCR4, c-KIT and EPCAM” value [3] turn out when B3 was run?
Its value is greater than 95%.

B4: sFRP3: soluble Frizzled-related protein 3, WNT antagonist (protein, UniProt Q92765 33-325, looked up)
Secreted frizzled-related …: AACEPVRIPLCKSLPWNMTKMPNHLHHSTQANAILAIEQFEGLLGTHCSPDLLFFLCAMYAPICTIDFQHEPIKPCKSVCERARQGCEPILIKYRHSWPENLACEELPVYDRGVCISPEAIVTADGADFPMDSSNGNCRGASSERCKCKPIRATQKTYFRNNYNYVIRAKVKEIKTKCHDVTAVVEVKEILKSSLVNIPRDTVNLYTSSGCLCPPLNVNEEYIIMGYEDEERSRLLLVEGSIAEKWKDRLGKKVKRWDMKLRHLGLSKSDSSNSDSTQSQKSGRNSNPRQARN
For B4, which “induction of PAX9 and SOX2 when added to NOGGIN/SB-431542” value ([2]; day 9, sFRP3 added with NOGGIN/SB-431542) is on record?
The value was “detrimental”.

What about the SOX2 expression [2, 5] of the same molecule?
Its SOX2 expression is “not sufficient”.
